Values of other authors as cited in publication PMC3651761.

Assays:
[1] = target: IGF-IR (Homo sapiens) (UniProt P08069)
[2] = target: Met receptor (Homo sapiens) (UniProt P08581)
Chain of UniProt P08581 (P08581 25-932): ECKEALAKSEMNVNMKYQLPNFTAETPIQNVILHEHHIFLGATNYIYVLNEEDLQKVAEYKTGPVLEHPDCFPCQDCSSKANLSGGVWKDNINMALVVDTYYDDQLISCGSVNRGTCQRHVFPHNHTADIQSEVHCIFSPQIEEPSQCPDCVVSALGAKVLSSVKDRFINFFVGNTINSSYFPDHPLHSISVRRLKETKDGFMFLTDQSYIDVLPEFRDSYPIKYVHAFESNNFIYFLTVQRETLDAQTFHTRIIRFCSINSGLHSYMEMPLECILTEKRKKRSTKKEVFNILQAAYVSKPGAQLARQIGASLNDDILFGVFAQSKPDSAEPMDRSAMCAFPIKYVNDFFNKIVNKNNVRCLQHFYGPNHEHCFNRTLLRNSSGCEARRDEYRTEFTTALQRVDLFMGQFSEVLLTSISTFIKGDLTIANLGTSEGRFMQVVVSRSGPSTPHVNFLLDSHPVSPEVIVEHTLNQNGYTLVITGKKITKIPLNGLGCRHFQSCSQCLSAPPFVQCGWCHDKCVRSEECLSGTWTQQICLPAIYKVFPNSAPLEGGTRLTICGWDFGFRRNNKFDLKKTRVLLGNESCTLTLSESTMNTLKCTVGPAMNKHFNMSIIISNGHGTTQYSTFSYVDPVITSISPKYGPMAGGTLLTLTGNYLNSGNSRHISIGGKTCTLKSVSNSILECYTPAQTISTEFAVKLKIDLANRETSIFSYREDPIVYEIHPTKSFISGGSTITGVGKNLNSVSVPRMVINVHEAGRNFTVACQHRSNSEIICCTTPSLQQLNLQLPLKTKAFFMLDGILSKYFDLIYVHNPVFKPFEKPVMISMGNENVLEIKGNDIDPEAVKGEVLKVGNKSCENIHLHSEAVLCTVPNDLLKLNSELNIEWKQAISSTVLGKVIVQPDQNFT

Chain of UniProt P08069 (P08069 31-736, chain 1 of 2): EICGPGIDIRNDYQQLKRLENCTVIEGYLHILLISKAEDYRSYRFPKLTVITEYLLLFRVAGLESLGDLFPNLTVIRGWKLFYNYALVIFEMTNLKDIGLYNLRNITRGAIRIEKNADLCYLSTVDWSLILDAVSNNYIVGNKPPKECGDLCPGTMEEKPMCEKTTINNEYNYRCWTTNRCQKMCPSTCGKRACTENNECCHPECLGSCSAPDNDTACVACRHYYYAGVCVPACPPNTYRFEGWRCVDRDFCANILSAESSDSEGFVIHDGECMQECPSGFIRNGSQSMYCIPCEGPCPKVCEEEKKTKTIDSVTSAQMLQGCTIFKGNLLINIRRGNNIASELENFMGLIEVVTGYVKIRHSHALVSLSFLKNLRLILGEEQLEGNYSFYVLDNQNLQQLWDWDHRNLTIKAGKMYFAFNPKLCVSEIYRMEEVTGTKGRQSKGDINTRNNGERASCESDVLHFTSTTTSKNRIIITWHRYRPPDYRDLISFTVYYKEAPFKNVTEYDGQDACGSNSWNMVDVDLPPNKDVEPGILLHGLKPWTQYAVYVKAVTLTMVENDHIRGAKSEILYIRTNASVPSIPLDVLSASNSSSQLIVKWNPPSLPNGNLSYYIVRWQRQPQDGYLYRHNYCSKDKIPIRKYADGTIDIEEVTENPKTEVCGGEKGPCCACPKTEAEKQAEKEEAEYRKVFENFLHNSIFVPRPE
Chain of UniProt P08069 (P08069 741-935, chain 2 of 2): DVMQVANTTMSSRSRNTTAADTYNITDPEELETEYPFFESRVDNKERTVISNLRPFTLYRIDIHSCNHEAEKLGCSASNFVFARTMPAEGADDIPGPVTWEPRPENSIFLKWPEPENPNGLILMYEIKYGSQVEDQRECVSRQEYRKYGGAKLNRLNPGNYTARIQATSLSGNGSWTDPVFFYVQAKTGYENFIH

- Kd [1]: 18 nM
- Kd [2]: 2 nM
Substance: Decorin (from UniProt P07585)
